Source: patent EP4667489A1 (Kyinno Biotechnology Co., Ltd., dated 2025)

Assays:
[1] = biological target: T1, human LAG3 expressed on 293T-LAG3 cells (human, UniProt P18627 23-525); assay: flow cytometry on 293T-LAG3 cells
T1 construct: whole, on cells; 293T cells stably expressing human LAG3 (Kyinno KC-0214); also called LAG3-expressing cells
T1 sequence (looked up): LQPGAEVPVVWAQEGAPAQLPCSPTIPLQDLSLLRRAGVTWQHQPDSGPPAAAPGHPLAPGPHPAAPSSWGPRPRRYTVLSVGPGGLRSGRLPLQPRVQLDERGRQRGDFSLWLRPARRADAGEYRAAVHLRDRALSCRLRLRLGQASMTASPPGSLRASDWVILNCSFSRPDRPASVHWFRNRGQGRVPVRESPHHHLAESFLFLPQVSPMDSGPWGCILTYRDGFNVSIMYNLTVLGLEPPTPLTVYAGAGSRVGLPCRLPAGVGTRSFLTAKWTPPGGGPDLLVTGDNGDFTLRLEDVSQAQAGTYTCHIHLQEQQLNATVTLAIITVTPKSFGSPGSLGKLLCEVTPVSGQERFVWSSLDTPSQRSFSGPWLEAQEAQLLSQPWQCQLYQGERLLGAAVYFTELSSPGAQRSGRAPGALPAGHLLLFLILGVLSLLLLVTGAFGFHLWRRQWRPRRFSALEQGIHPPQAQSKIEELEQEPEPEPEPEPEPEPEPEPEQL

[2] = biological target: T2, LAG3-hFc (fusion protein of the human LAG3 extracellular domain and human IgG1-Fc) (human, UniProt P18627 23-450); assay: flow cytometry, blocking of LAG3-hFc binding to Daudi cells
T2 construct: extracellular domain; not shown: human IgG1-Fc, Genbank CAC20454.1
T2 sequence (looked up): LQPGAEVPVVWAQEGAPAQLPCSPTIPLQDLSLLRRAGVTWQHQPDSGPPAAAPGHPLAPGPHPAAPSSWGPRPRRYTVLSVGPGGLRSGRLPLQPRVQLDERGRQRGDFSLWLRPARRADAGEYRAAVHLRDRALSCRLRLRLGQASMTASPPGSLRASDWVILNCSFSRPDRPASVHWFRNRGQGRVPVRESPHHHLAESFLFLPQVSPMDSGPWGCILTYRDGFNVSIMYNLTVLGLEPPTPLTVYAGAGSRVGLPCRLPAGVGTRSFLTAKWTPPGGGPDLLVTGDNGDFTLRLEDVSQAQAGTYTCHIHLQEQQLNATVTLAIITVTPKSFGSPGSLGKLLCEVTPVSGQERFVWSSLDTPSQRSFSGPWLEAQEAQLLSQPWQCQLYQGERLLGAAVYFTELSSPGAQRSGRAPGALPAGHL

EC50 [1]: 1.08 µg/mL
IC50 [2]: 1.26 µg/mL
B1: anti-LAG3 murine antibody 28G2 (hybridoma cell line KD-0019 28G2-7) (antibody, V domains shown)
VH: DVKLQESGPGLVKPSQSLSLTCSVTGYSFTSGYYWNWIRLFPGNKLEWMGYVSYFGTNNYNPSLKNRFSITRDTSKNQFFLKLNSVSTEDTATYYCARGEEWDWSFDVWGTGTTVTVSS
VL: DIVLTQSPAFMSASPGEKVTMTCSASSSVSYMHWYQQKSGTSPKRWIYDTSKLASGVPTRFSGSGSGTSYSLTISSMEAEDAATYYCQQWSTNPPYTFGGGTKLEIK
notes: murine antibody tested as hybridoma culture supernatant
